Experimental findings from IntAct's records for PubMed 12403843 are described below.

The chains are these.
B1: Vitamin D3 receptor (Homo sapiens), P11473 (parent)
chain: MEAMAASTSLPDPGDFDRNVPRICGVCGDRATGFHFNAMTCEGCKGFFRRSMKRKALFTCPFNGDCRITKDNRRHCQACRLKRCVDIGMMKEFILTDEEVQRKREMILKRKEEEALKDSLRPKLSEEQQRIIAILLDAHHKTYDPTYSDFCQFRPPVRVNDGGGSHPSRPNSRHTPSFSGDSSSSCSDHCITSSDMMDSSSFSNLDLSEEDSDDPSVTLELSQLSMLPHLADLVSYSIQKVIGFAKMIPGFRDLTSEDQIVLLKSSAIEVIMLRSNESFTMDDMSWTCGNQDYKYRVSDVTKAGHSLELIEPLIKFQVGLKKLNLHEEEHVLLMAICIVSPDRPGVQDAALIEAIQDRLSNTLQTYIRCRHPPPGSHLLYAKMIQKLADLRSLNEEHSKQYRCLSFQPECSMKLTPLVLEVFGNEIS

One experiment covers variants of B1. The following applies: with ncoa1_human NCOA1, Q15788.
ncoa1_human NCOA1, Q15788, sequence (Q15788 whole entry): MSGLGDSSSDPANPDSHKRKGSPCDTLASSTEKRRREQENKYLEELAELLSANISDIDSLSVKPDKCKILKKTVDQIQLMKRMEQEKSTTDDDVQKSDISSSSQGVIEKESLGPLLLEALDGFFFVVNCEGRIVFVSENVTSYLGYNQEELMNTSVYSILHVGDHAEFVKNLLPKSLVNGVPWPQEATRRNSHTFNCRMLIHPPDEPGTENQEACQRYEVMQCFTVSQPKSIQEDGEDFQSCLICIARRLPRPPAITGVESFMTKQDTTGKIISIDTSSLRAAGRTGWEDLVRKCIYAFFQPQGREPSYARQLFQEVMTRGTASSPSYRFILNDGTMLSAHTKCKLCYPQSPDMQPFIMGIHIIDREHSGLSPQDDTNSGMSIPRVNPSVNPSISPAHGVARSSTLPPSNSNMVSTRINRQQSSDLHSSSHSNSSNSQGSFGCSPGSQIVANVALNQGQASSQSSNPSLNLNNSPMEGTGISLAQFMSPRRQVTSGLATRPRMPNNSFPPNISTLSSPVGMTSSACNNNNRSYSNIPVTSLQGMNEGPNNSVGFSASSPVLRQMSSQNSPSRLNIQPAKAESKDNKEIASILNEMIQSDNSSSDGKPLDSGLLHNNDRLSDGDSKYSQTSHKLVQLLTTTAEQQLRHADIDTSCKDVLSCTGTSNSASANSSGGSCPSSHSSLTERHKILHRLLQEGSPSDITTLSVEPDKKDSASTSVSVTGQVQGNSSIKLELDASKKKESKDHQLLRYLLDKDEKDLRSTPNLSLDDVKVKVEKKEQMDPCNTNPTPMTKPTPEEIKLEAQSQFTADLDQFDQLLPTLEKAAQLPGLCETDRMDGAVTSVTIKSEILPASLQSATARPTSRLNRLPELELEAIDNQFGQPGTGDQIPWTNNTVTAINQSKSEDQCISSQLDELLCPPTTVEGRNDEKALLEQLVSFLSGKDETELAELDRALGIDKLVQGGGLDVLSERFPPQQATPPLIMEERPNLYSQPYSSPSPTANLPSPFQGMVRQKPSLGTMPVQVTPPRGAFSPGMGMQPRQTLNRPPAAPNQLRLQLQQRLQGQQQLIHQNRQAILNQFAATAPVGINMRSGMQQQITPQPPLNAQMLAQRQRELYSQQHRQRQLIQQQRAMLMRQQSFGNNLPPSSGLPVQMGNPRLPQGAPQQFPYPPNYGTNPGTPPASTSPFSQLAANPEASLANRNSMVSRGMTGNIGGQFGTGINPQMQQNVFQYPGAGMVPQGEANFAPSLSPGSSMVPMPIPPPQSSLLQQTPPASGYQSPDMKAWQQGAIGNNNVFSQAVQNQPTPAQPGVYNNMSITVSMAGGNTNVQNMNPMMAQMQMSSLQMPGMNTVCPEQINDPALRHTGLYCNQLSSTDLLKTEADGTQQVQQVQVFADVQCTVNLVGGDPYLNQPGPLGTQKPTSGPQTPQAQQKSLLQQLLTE
As to MEAMAASTSLPDPGDFDRNVPRICGVCGDRATGFHFNAMTCEGCKGFFRRSMKRKALFTCPFNGDCRITKDNRRHCQACRLKRCVDIGMMKEFILTDEEVQRKREMILKRKEEEALKDSLRPKLSEEQQRIIAILLDAHHKTYDPTYSDFCQFRPPVRVNDGGGSHPSRPNSRHTPSFSGDSSSSCSDHCITSSDMMDSSSFSNLDLSEEDSDDPSVTLELSQLSMLPHLADLVSYSIQKVIGFAKMIPGFRDLTSEDQIVLLKSSAIEVIMLRSNESFTMDDMSWTCGNQDYKYRVSDVTKAGHSLELIEPLIKFQVGLKKLNLHEEEHVLLMAICIVSPDRPGVQDAALIEAIQDRLSNTLQTYIRCRHPPPGSHLLYAKMIQKLADLRSLNEEHSKQYRCLSFQPECSMKLTPLVLKVFGNEIS [E420K], the “effect of a mutation on the interaction” value is recorded as “disrupting interaction strength”.

The next experiment covers variants of B1. The following applies: with med1_human MED1, Q15648.
med1_human MED1, Q15648, sequence (Q15648 whole entry): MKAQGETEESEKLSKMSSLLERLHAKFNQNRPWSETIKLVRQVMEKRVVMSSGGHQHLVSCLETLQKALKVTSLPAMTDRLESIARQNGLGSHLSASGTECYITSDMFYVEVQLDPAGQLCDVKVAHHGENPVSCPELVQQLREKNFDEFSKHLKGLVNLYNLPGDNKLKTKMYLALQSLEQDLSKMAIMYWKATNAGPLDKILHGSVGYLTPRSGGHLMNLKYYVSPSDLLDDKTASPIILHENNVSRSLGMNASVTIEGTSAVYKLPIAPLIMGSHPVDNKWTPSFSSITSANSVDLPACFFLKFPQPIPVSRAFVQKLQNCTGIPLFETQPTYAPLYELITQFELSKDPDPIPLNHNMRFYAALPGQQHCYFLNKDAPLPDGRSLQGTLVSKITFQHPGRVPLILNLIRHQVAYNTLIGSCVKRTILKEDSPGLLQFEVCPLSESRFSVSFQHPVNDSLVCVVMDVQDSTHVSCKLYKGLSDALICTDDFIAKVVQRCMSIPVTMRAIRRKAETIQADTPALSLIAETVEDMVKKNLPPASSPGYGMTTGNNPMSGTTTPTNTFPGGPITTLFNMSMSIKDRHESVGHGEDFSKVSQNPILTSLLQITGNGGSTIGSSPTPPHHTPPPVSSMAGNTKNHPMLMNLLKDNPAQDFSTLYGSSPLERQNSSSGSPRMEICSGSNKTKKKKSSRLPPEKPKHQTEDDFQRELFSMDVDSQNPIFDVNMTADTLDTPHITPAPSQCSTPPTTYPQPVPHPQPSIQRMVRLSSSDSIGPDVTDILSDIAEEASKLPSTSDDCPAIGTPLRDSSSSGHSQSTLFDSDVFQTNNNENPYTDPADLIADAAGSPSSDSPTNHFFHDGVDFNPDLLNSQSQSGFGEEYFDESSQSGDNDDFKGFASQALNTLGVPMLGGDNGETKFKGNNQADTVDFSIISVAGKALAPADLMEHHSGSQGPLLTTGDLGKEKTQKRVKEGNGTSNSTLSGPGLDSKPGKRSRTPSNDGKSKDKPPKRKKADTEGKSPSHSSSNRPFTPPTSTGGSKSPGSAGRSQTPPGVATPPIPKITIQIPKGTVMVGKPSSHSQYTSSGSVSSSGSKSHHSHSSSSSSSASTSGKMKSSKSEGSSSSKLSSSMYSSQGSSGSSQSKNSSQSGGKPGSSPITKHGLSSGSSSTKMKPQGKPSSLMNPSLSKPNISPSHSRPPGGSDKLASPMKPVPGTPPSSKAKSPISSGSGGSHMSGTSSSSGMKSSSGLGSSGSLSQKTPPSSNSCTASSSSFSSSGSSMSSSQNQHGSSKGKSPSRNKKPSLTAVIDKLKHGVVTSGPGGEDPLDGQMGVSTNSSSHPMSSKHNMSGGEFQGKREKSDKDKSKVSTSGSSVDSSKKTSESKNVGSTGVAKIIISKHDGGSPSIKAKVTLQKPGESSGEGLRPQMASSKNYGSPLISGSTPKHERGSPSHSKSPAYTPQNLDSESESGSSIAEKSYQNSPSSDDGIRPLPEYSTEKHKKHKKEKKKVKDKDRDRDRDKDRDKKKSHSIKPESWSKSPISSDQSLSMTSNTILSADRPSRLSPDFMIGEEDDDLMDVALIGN
Turning to MEAMAASTSLPDPGDFDRNVPRICGVCGDRATGFHFNAMTCEGCKGFFRRSMKRKALFTCPFNGDCRITKDNRRHCQACRLKRCVDIGMMKEFILTDEEVQRKREMILKRKEEEALKDSLRPKLSEEQQRIIAILLDAHHKTYDPTYSDFCQFRPPVRVNDGGGSHPSRPNSRHTPSFSGDSSSSCSDHCITSSDMMDSSSFSNLDLSEEDSDDPSVTLELSQLSMLPHLADLVSYSIQKVIGFAKMIPGFRDLTSEDQIVLLKSSAIEVIMLRSNESFTMDDMSWTCGNQDYKYRVSDVTKAGHSLELIEPLIKFQVGLKKLNLHEEEHVLLMAICIVSPDRPGVQDAALIEAIQDRLSNTLQTYIRCRHPPPGSHLLYAKMIQKLADLRSLNEEHSKQYRCLSFQPECSMKLTPLVLKVFGNEIS [E420K], the “effect of a mutation on the interaction” value is reported as “disrupting interaction strength”.
